Data published in the supplement of paper PMC7877785.
± gives the uncertainty stated by the source.

Test: self-splicing fitness, log relative to wild type (ln ratio); higher = more splicing; Tetrahymena group I intron in knt gene, E. coli kanamycin selection, DiMSum; sequences stand for … in CUCUCU…GGAGGGAAAAGUUAUCAGGCAUGCACCUGGUAGCUAGUCUUUAAACCAAUAGAUUGCAUCGGUUUAAAAGGCAAGACCGUCAAAUUGCGGGAAAGGGGUCAACAGCCGUUCAGUACCAAGUCUCAGGGGAAACUUUGAGAUGGCCUUGCAAAGGGUAUGGUAAUAAGCUGACGGACAUGGUCCUAACCACGCAGCCAAGUCCUAAGUCAACAGAUCUUCUGUUGAUAUGGAUGCAGUUCACAGACUAAAUGUCGGUCGGGGAAGAUGUAUUCUUCUCAUAAGAUAUAGUCGGACCUCUCCUUAAUGGGAGCUAGCGGAUGAAGUGAUGCAACACUGGAGCCGCUGGGAACUAAUUUGUAUGCGAAAGUAUAUUGAUUAGUUUUGGAGUACUCGUGGUCG
Method in brief: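 Six replicate transformations of E. coli BL21(DE3) with a pET-22b(+) library were grown overnight at 37°C or 30°C. The library randomised all eight P1ex-region intron nucleotides, the intron lying in the knt kanamycin-resistance gene, and plates were LB agar with or without 25 μg/mL kanamycin plus 100 μg/mL carbenicillin, 50 μM IPTG and 0.2% rhamnose. Pooled colonies were amplicon-sequenced on an Illumina HiSeq 2500, and fitness is the DiMSum error-weighted combination of wild-type-normalised replicate fold changes, kanamycin versus none.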

Sequence	self-splicing fitness (ln) (30 °C)	self-splicing fitness (ln) (37 °C)
AAUUAGCAAUAUUACGCCGA	-1.34 ± 0.26	-0.981 ± 0.21
AAUUAGCAAUAUUACGCCUC	-1.22 ± 0.18	-2.47 ± 0.25
AAUUAGCAAUAUUACGCUGU	-1.44 ± 0.16	-1.26 ± 0.2
AAUUAGCAAUAUUACGGAAC	-2.77 ± 0.13	-2.18 ± 0.2
AAUUAGCAAUAUUACGGAUU	-2.2 ± 0.12	-1.3 ± 0.14
AAUUAGCAAUAUUACGGCAC	-1.11 ± 0.16	-0.154 ± 0.21
AAUUAGCAAUAUUACGGUAA	-2.72 ± 0.2	-0.655 ± 0.22
AAUUAGCAAUAUUACGGUAU	-1.29 ± 0.097	-0.598 ± 0.11
AAUUAGCAAUAUUACGGUUG	-2.53 ± 0.13	-0.897 ± 0.13
AAUUAGCAAUAUUACGUACU	-0.151 ± 0.089	0.263 ± 0.13
AAUUAGCAAUAUUACGUAUG	-1.04 ± 0.12	-1.13 ± 0.16
AAUUAGCAAUAUUACGUCUU	0.444 ± 0.091	0.46 ± 0.098
AAUUAGCAAUAUUACGUGAG	-1.71 ± 0.077	-0.654 ± 0.1
AAUUAGCAAUAUUACGUGAU	-1.87 ± 0.13	-1.56 ± 0.16
AAUUAGCAAUAUUACGUUAU	-2.88 ± 0.18	-1.11 ± 0.12
AAUUAGCAAUAUUACGUUCC	-3 ± 0.22	-1.32 ± 0.21
AAUUAGCAAUAUUACGUUUC	-2.89 ± 0.23	-1.57 ± 0.23
ACAAAGCAAUAUUACGAAGG	-2.52 ± 0.087	-1.75 ± 0.12
ACAAAGCAAUAUUACGAAGU	-2.04 ± 0.12	-2.06 ± 0.18
ACAAAGCAAUAUUACGACAG	-1.34 ± 0.066	-0.8 ± 0.084
ACAAAGCAAUAUUACGAGGU	-4.39 ± 0.2	-2.78 ± 0.18
ACAAAGCAAUAUUACGAUCG	-0.241 ± 0.074	0.193 ± 0.095
ACAAAGCAAUAUUACGCACG	-1.96 ± 0.12	-0.724 ± 0.1
